# Positions count from the first letter of the chain named.
# B1: MS-GPC-8-6 (Fab form) (Fab, V domains shown)
# VH: QVQLKESGPALVKPTQTLTLTCTFSGFSLSTSGVGVGWIRQPPGKALEWLALIDWDDDKYYSTSLKTRLTISKDTSKNQVVLTMTNMDPVDTATYYCARSPRYRGAFDYWGQGTLVTVSS
# VL: DIVLTQPPSVSGAPGQRVTISCSGSSSNIGSNYVSWYQQLPGTAPKLLIYDNNQRPSGVPDRFSGSKSGTSASLAITGLQSEDEADYYCQSYDYDHYVFGGGTKLTVLG
# notes: Fab: VH-CH1-FLAG-STREP tag II
# B2: MS-GPC-8-10-57 (Fab form) (Fab, V domains shown)
# VH: B1 VH
# VL: B1 VL with S26E, S31N, S35Q, Y94L, D95I, H96R, Y97H
# notes: Fab: VH-CH1-FLAG-STREP tag II; also called 1C7277
# B3: MS-GPC-8-10-57 (IgG4 form) (antibody, V domains shown)
# VH: B1 VH
# VL: B1 VL with S26E, S31N, S35Q, Y94L, D95I, H96R, Y97H
# notes: Human IgG4 (constant region EMBL K01316), lambda constant region (EMBL M18645), from CHO-K1 cells; also called 1C7277
# B4: MS-GPC-8-27-41 (IgG4 form) (antibody, V domains shown)
# VH: B1 VH
# VL: B1 VL with S26E, S31N, S35Q, Y94M, D95N, H96V, Y97H
# notes: Human IgG4 (constant region EMBL K01316), lambda constant region (EMBL M18645), from CHO-K1 cells; also called 1D09C3
# B5: MS-GPC-8-6-13 (IgG4 form) (antibody, V domains shown)
# VH: B1 VH
# VL: B1 VL with S26E, S31A, S35T
# notes: Human IgG4 (constant region EMBL K01316), lambda constant region (EMBL M18645), from CHO-K1 cells; also called 305D3
# Assays:
# [1] = target: human-mouse chimeric molecule DR-IE (human; mouse); assay: cell-based or functional assay
# bovine serum albumine = target: T1, bovine serum albumine (bovine, UniProt P02769 25-607); assay: ELISA, antigen coated at 10 µg/well
# T1 construct: negative control protein; also called BSA
# Experimental: (§1) After washing in PBS the anti-human IgG F(ab)₂-peroxidase-conjugate at a 1:10,000 dilution in TBS (supplemented with 5% w/v non-fat dry-milk/0.05% v/v Tween 20) was added to each well for 1 h. Final washes were carried out in PBS followed the addition the substrate POD (Roche). Color-development was read at 370 nm in an ELISA-Reader.
# human apotransferrin = target: T2, human apotransferrin (human, UniProt P02787 20-698); assay: ELISA, antigen coated at 10 µg/well
# T2 construct: negative control protein
# Experimental: as §1
# [2] = target: T3, human MHC class II DR protein (DRA*0101/DRB1*0401), purified from PRIESS cells (human, UniProt P01903 26-254; P01911 30-266, limits assumed); assay: SPR (BIAcore), Fab, 3 chips (500, 4000, 3000RU)
# T3 construct: mature; 'mature' is my reading; also called HLA-DR protein; MHCII
# T3 MHC II alpha: not shown
# T3 MHC II beta: not shown
# [3] = target: T4, HLA-DR on the human B-lymphoblastoid cell line LG-2 (human); assay: cell-based or functional assay
# [4] = target: T4, HLA-DR on the human B-lymphoblastoid …; assay: FACS on LG-2 cells, competitor 1-1C4
# Experimental: Subsequently murine antibodies were added and the murine antibodies were detected.
# The whole staining procedure was performed on ice. 1×10⁷ cells of the human B-lymphoblastoid cell line LG-2 was preblocked for 20 min. in PBS containing 2% FCS and 35 μg/ml Guinea Pig IgG (“FACS-Buffer”). […] Subsequently, 4 ml of PBS were added to each vial, the vials were centrifuged at 300×g for 8 min, and the cell pellet resuspended in 50 μl FACS buffer containing a 1 to 25 dilution of a goat-anti-murine Ig-FITC conjugate at 20 μg/ml final concentration (BD Pharmingen, Torrey Pines, Calif., USA). Cells were incubated light-protected for 30 min. Afterwards, cells were washed with 4 ml PBS, centrifuged as above and resuspended in 500 μl PBS for analysis in the flow cytometer (FACS Calibur, BD Immunocytometry Systems, San Jose, Calif., USA).
# [5] = target: T3, human MHC class II DR protein …; assay: BiaCore, IgG4
# Experimental: The affinities for anti-HLA antibody fragments of the invention were measured as follows. All measurements were conducted in HBS buffer (20 mM HEPES, 150 mM NaCl, pH 7.4) at a flow rate of 20 μl/min at 25° C. on a BIAcore3000 instrument (Biacore AB, Sweden). MHC class II DR protein (prepared as example 1) was diluted in 100 mM sodium acetate pH 4.5 to a concentration of […], and coupled to a CM5 chip (Biacore AB) using standard EDC-NHS coupling chemistry with subsequent ethanolamine treatment as manufacturers directions. The coating density of MHCII was adjusted to between 500 and 4000 RU. Affinities were measured by injection of 5 different concentrations of the different antibodies and using the standard software of the Biacore instrument. Regeneration of the coupled surface was achieved using 10 mM glycine pH 2.3 and 7.5 mM NaOH.
# [6] = target: HLA-DR antigen on the surface of HLA-DR positive cells (tumor cell lines other than PRIESS and LG-2, normal B … (human)); assay: cell-based or functional assay
# [7] = target: human-mouse chimeric molecule DR-IE (human; mouse); assay: cell-based or functional assay; remark: listed apart in the source
# [8] = target: T4, HLA-DR on the human B-lymphoblastoid …; assay: cell-based or functional assay; remark: listed apart in the source
Binder,"IC50, inhibition of IL-2 secretion of T-Hyb 1 cells [1]",Maximum inhibition(%) of IL-2 secretion [1],binding result (bovine serum albumine),binding result (human apotransferrin),Kd [2],kon [2],"EC50 of cell killing, LG2, cross-linked Fab as bivalent agent [3]",reduction of mean fluorescence intensity of the murine antibody [4],kon [5],"EC50 of cell killing, IgG form [6]",IC50 for inhibition of T cell proliferation [7],"% killing of LG-2 cells, 50 nM, 4 h [8]","EC50 of cell killing, LG2, IgG4 [3]",koff [5]
B1,20 nM ((Fab)/2),100%,no binding (tested: 100 ng/well),no binding (tested: 100 ng/well),8 nM,120000 M⁻¹ s⁻¹,,,,,,,,
B2,2.9 nM ((Fab)/2),100%,,no binding (tested: 100 ng/well),,,7.2 nM,> 90%,,,,,,
B3,0.31 nM,100%,,,,,,> 90%,11000 M⁻¹ s⁻¹,1.2 nM,11 nM,88%,1 nM,
B4,0.28 nM,100%,,,,,,> 90%,71000 M⁻¹ s⁻¹,1.2 nM,20 nM,87%,1.23 nM,
B5,0.42 nM,100%,,,,,,,,,,82%,,0.00033 s⁻¹

# Source: patent US20090325290A1 (published 2009)
